Source: US20160200782A1 (MOERAE MATRIX, published 2016)

T1: MuSK(h) (human, UniProt O15146 517-869, limits assumed)
T1 sequence (looked up): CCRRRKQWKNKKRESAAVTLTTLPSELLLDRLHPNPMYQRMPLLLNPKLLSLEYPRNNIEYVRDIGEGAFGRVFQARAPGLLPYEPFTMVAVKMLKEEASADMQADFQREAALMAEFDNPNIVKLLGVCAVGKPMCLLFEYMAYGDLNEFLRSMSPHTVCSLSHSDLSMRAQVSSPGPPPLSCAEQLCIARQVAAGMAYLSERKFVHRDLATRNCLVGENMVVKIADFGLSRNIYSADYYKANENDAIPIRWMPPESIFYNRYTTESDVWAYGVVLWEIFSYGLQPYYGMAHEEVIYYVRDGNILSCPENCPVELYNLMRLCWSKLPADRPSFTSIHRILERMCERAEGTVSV

T2: PKD2(h) (human, UniProt Q9BZL6 1-878, limits assumed)
T2 sequence (looked up): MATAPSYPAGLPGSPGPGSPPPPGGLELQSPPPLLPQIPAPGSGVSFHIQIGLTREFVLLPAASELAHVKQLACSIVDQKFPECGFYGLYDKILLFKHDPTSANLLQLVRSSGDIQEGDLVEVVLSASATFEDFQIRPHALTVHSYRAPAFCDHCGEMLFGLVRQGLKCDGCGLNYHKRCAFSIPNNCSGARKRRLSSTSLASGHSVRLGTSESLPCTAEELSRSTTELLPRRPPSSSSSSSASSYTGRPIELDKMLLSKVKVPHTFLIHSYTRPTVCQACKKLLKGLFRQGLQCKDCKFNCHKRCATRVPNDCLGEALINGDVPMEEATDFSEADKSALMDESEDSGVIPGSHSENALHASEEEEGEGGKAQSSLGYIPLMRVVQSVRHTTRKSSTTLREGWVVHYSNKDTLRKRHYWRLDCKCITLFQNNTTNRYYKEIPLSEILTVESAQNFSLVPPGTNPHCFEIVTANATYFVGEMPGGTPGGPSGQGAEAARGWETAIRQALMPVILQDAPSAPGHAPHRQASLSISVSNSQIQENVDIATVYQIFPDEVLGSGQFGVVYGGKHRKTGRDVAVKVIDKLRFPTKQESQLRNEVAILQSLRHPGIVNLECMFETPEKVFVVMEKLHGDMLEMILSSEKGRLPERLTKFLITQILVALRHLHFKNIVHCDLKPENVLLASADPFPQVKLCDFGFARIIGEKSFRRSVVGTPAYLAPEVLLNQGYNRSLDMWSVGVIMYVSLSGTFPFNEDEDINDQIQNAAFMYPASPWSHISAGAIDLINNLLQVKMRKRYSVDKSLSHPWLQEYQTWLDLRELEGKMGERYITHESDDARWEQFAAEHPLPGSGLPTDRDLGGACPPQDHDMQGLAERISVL

T3: PKG1β(h) (human, UniProt Q13976-2 1-686)
T3 sequence (looked up): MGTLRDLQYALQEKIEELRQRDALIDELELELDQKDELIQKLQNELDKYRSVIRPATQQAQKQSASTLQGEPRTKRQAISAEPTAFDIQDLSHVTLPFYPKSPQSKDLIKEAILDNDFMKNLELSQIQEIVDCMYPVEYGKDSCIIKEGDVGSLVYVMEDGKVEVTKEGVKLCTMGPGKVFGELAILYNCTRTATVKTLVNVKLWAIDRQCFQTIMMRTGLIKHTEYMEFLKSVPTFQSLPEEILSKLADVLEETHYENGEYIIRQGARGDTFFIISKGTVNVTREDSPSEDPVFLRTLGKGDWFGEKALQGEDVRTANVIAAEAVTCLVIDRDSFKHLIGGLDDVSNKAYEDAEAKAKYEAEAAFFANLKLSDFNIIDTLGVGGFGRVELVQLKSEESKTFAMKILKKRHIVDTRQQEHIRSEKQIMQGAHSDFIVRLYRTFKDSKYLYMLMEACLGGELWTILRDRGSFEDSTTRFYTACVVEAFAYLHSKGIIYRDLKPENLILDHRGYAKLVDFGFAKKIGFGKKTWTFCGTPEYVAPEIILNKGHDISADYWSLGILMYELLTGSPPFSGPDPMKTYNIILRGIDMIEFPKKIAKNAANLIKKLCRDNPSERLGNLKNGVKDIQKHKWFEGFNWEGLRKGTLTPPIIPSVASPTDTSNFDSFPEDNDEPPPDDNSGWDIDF

T4: SAPK4(h) (human, UniProt O15264 1-365)
T4 sequence (looked up): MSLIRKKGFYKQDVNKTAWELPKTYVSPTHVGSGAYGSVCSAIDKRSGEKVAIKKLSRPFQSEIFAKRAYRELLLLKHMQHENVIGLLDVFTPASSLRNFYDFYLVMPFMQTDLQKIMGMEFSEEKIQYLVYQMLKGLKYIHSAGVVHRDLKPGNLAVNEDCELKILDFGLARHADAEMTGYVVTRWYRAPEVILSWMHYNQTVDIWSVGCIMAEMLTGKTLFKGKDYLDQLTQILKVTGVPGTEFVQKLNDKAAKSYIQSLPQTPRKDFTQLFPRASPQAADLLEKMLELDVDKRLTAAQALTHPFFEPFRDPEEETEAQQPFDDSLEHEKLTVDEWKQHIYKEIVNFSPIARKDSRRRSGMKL


Legend:
Test in all cases: cell-based or functional assay
[1] = molecular target: IRR(h) (human, UniProt P14616 960-1297, limits assumed)
[2] = molecular target: LOK(h) (human, UniProt O94804 1-348, limits assumed)
[3] = molecular target: Met(D1246H)(h) (human, UniProt P08581-2 974-1408, limits assumed)
[4] = molecular target: MST3(h) (human, UniProt Q9Y6E0 1-443, limits assumed)
[5] = molecular target: T1, MuSK(h)
[6] = molecular target: T2, PKD2(h)
[7] = molecular target: T3, PKG1β(h)
[8] = molecular target: Rsk2(h) (human, UniProt P51812 1-740, limits assumed)
[9] = molecular target: T4, SAPK4(h)
[10] = molecular target: Snk(h) (human, UniProt Q9NYY3 1-685, limits assumed)
[11] = molecular target: TrkA(h) (human, UniProt P04629 441-796, limits assumed)
[12] = molecular target: VRK2(h) (human, UniProt Q86Y07 1-508, limits assumed)
[13] = molecular target: CHK2(I157T)(h) (human, UniProt O96017 5-543, limits assumed)
Further: test concentration or dose not given here.

TrkA(h), sequence (P04629 441-796 limits assumed): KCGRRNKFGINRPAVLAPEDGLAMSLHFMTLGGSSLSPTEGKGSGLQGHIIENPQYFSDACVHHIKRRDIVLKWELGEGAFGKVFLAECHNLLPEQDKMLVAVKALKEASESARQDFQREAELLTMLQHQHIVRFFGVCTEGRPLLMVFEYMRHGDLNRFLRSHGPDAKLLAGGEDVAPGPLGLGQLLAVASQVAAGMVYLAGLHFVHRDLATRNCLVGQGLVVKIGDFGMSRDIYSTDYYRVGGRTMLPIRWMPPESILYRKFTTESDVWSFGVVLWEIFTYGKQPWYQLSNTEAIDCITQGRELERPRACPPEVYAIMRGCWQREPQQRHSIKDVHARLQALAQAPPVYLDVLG
Rsk2(h), sequence (P51812 whole entry): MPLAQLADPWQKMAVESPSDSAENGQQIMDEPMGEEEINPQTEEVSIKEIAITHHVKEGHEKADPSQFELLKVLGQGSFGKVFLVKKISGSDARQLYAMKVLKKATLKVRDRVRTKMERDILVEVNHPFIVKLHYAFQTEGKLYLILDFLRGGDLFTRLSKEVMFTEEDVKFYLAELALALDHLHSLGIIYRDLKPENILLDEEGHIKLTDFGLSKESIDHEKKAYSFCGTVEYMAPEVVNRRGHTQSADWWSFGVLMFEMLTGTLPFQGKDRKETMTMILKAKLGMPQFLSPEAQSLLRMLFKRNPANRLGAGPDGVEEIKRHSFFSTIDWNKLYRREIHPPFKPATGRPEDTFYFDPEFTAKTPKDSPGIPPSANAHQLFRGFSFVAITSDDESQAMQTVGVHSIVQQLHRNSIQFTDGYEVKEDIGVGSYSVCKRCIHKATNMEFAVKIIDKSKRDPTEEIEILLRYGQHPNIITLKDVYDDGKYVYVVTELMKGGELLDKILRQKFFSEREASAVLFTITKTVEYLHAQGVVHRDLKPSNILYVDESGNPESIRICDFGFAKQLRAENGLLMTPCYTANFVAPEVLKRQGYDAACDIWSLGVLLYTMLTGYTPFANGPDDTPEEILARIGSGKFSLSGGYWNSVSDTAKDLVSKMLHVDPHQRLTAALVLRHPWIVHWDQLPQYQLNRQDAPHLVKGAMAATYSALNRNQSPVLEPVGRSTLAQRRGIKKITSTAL
LOK(h), sequence (O94804 1-348 limits assumed): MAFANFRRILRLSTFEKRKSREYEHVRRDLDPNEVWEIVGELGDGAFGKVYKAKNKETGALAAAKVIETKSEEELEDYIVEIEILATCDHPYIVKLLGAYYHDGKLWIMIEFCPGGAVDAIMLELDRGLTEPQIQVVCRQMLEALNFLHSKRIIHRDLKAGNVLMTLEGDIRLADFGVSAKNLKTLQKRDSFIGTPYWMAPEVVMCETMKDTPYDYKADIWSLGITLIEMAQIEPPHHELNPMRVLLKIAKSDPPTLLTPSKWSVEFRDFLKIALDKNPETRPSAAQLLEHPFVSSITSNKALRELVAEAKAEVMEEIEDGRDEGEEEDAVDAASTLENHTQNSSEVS
MST3(h), sequence (Q9Y6E0 whole entry): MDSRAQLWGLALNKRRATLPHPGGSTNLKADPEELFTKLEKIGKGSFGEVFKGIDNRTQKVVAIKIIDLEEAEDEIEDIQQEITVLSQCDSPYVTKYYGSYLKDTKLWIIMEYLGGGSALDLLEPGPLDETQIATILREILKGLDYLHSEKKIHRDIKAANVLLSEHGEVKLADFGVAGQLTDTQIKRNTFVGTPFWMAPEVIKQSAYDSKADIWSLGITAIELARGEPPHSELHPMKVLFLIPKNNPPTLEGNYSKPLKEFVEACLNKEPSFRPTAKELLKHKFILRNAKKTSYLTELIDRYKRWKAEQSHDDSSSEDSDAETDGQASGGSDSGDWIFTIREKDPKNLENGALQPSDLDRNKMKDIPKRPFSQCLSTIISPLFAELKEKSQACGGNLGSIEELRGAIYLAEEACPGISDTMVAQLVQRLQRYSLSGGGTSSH
CHK2(I157T)(h), sequence (O96017 5-543 I157T limits assumed): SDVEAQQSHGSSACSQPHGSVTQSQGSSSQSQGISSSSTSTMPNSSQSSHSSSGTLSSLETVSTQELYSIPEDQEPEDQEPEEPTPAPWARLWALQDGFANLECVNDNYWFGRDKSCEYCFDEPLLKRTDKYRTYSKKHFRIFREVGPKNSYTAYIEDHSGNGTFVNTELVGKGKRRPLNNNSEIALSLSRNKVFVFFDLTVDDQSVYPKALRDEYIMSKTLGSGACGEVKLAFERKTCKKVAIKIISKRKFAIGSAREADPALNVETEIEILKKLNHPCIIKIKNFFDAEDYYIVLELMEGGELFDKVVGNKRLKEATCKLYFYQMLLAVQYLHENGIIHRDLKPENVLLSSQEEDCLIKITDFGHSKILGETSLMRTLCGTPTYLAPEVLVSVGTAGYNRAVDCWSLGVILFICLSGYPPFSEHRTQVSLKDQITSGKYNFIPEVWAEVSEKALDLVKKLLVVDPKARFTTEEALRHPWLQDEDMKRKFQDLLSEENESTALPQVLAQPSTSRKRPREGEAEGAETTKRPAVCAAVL
Snk(h), sequence (Q9NYY3 whole entry): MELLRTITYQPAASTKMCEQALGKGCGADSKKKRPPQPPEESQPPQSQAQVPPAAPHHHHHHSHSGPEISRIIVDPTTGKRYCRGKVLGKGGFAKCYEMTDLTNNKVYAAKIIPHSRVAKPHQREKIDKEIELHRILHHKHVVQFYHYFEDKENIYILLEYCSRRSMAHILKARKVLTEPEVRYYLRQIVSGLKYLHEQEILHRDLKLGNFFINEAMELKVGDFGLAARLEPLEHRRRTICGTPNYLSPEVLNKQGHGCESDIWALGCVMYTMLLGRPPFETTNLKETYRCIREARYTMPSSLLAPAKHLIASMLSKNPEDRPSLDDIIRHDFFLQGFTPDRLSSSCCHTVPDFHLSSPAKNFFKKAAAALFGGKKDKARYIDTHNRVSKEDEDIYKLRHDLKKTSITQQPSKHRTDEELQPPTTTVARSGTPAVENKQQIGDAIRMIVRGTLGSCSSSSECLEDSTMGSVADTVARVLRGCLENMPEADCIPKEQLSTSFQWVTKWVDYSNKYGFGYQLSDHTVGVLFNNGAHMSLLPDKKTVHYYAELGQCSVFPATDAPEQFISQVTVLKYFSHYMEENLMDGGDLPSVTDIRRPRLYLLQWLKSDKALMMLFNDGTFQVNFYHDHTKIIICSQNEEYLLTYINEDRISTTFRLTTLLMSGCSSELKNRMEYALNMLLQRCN
IRR(h), sequence (P14616 960-1297 limits assumed): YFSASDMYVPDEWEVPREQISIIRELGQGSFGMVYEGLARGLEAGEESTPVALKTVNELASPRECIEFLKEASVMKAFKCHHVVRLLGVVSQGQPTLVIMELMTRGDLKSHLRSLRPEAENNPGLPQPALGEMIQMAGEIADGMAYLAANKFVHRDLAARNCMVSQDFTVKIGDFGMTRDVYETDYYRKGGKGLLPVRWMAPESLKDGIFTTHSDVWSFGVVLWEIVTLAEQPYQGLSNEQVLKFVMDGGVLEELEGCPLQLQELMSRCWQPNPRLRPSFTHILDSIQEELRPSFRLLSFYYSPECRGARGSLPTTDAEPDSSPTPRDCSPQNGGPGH
VRK2(h), sequence (Q86Y07 whole entry): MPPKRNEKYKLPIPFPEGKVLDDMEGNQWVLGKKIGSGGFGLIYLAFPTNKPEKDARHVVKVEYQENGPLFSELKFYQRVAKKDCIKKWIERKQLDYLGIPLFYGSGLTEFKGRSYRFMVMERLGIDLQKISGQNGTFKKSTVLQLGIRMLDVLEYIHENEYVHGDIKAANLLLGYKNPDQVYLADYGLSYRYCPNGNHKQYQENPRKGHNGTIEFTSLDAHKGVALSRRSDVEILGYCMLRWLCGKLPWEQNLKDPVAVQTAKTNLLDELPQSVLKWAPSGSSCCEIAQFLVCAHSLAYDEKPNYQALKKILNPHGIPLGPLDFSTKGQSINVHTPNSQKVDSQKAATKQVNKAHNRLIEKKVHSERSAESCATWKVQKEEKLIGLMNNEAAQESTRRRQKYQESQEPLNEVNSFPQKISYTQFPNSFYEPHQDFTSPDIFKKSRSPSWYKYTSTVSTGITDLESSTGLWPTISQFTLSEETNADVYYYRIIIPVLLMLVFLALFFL

Row | % activity [1] [%] | % activity [2] [%] | % activity [3] [%] | % activity [4] [%] | % activity [5] [%] | % activity [6] [%] | % activity [7] [%] | % activity [8] [%] | % activity [9] [%] | % activity [10] [%] | % activity [11] [%] | % activity [12] [%] | % activity [13] [%] | Binder
1 | 8 | 18 | 68 | 36 | 93 | 25 | 53 | 38 | 91 | 131 | 17 | 185 | 41 | KAFAKLAARLYRKALARQLGVAA [MMI-0400]
2 | 8 | 37 | 125 | 45 | 93 | 33 | 50 | 51 | 96 | 114 | 25 | 161 | 43 | FAKLAARLYRKALARQLGVAA [MMI-0300]
